Assay results published in the supplement of paper PMC10201428.
± gives the standard deviation of the averaged measurements.

B1: library; a variant is named by its letters at N, in order (parent)
chain: ACATTTGTTGATACAACCATAAAATGATAATTACACCCATAAATTGATAATTATCACACCCANNNNNNNNNNNNNNCTCTGATCATAGTCAGACCAACATTGCTACGACCCGTATTCGCACCGACAC

Legend:
[1] = variants of: B1; assay: relative integration efficiency (T-RL orientation) vs wild-type transposon end (log2 (normalized fold change)); transposon end mutated: right end (5 bp flank + 75 bp right end); higher = more efficient transposition; conditions: with VchCAST RNA-guided transposition machinery (E. coli BL21(DE3) host, lacZ target)
Procedure: (§1)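 Pooled, barcoded VchCAST (Tn6677) mini-transposon donor libraries; each variable transposon-end sequence sits in a fixed pDonor mini-transposon context (10-bp barcode and cargo not included). Left- or right-end libraries were co-transformed with pEffector (TniQ-Cascade, TnsABC, lacZ crRNA, T7, 0.1 mM IPTG) into E. coli BL21(DE3) and grown 18 h at 37 C. T-LR and T-RL junction amplicons were sequenced; output/input barcode fold change was normalised to the mean of four wild-type barcodes and log2-transformed. Two biological replicates; zero-count/undetected variants carry floor values (-10 / -15), censored here. Barcode uncoupling by PCR recombination adds noise.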

[2] = variants of: B1; assay: relative integration efficiency (T-LR orientation) vs wild-type transposon end (log2 (normalized fold change)); transposon end mutated: right end (5 bp flank + 75 bp right end); higher = more efficient transposition; conditions: with VchCAST RNA-guided transposition machinery (E. coli BL21(DE3) host, lacZ target)
Procedure: as §1

How did the “relative integration efficiency (log2)” value [1] turn out when ACATTTGATGATACAACCATAAAATGATAATTACACCCATAAATTGATAATTATCACACCCATAAATTGATATTGCCTCTGATCATAGTCAGACCAACATTGCTACGACCCGTATTCGCACCGACAC [TAAATTGATATTGC T8A] was run?
Its value is -0.814 ± 0.13.

What about the “relative integration efficiency (log2)” value [2] of the same variant?
The value was -1.99 ± 0.69.

Which results are given for ACATTTGGTGATACAACCATAAAATGATAATTACACCCATAAATTGATAATTATCACACCCATAAATTGATATTGCCTCTGATCATAGTCAGACCAACATTGCTACGACCCGTATTCGCACCGACAC [TAAATTGATATTGC T8G]?
relative integration efficiency (log2) [1]: -5.89 ± 0.83; relative integration efficiency (log2) [2]: -3.6 ± 0.47

With ACATTTGCTGATACAACCATAAAATGATAATTACACCCATAAATTGATAATTATCACACCCATAAATTGATATTGCCTCTGATCATAGTCAGACCAACATTGCTACGACCCGTATTCGCACCGACAC [TAAATTGATATTGC T8C] as the variant, how does the “relative integration efficiency (log2)” value [1] read?
Its value is -0.808 ± 0.29.

And the “relative integration efficiency (log2)” value [2]?
The value was -2.19 ± 0.042.

Which “relative integration efficiency (log2)” value [1] does the source give for ACATGTGTTGATACAACCATAAAATGATAATTACACCCATAAATTGATAATTATCACACCCATAAATTGATATTGCCTCTGATCATAGTCAGACCAACATTGCTACGACCCGTATTCGCACCGACAC [TAAATTGATATTGC T5G] here?
The value was -0.23 ± 0.018.

And the “relative integration efficiency (log2)” value [2]?
The value was -0.319 ± 0.36.

For ACATCTGTTGATACAACCATAAAATGATAATTACACCCATAAATTGATAATTATCACACCCATAAATTGATATTGCCTCTGATCATAGTCAGACCAACATTGCTACGACCCGTATTCGCACCGACAC [TAAATTGATATTGC T5C], which “relative integration efficiency (log2)” value [1] is on record?
The value was -0.234 ± 0.068.

And the “relative integration efficiency (log2)” value [2]?
Its value is -0.488 ± 0.12.

Which results are given for ACATATGTTGATACAACCATAAAATGATAATTACACCCATAAATTGATAATTATCACACCCATAAATTGATATTGCCTCTGATCATAGTCAGACCAACATTGCTACGACCCGTATTCGCACCGACAC [TAAATTGATATTGC T5A]?
relative integration efficiency (log2) [1]: 0.0941 ± 0.11; relative integration efficiency (log2) [2]: 0.163 ± 0.31

Which results are given for ACATTTGTCGATACAACCATAAAATGATAATTACACCCATAAATTGATAATTATCACACCCATAAATTGATATTGCCTCTGATCATAGTCAGACCAACATTGCTACGACCCGTATTCGCACCGACAC [TAAATTGATATTGC T9C]?
relative integration efficiency (log2) [1]: 0.234 ± 0.012; relative integration efficiency (log2) [2]: 0.331 ± 0.42

ACATTTGTGGATACAACCATAAAATGATAATTACACCCATAAATTGATAATTATCACACCCATAAATTGATATTGCCTCTGATCATAGTCAGACCAACATTGCTACGACCCGTATTCGCACCGACAC [TAAATTGATATTGC T9G] was tested. Which “relative integration efficiency (log2)” value [1] did it give?
Its value is 0.104 ± 0.038.

What about the “relative integration efficiency (log2)” value [2] of the same variant?
The value was 0.0503 ± 0.46.

How did the “relative integration efficiency (log2)” value [1] turn out when ACATTTGTAGATACAACCATAAAATGATAATTACACCCATAAATTGATAATTATCACACCCATAAATTGATATTGCCTCTGATCATAGTCAGACCAACATTGCTACGACCCGTATTCGCACCGACAC [TAAATTGATATTGC T9A] was run?
The value was -0.0594 ± 0.085.

And the “relative integration efficiency (log2)” value [2]?
The value was -0.234 ± 0.3.

ACATTCGTTGATACAACCATAAAATGATAATTACACCCATAAATTGATAATTATCACACCCATAAATTGATATTGCCTCTGATCATAGTCAGACCAACATTGCTACGACCCGTATTCGCACCGACAC [TAAATTGATATTGC T6C] was tested. Which “relative integration efficiency (log2)” value [1] did it give?
The value was -1.81 ± 0.2.

What about the “relative integration efficiency (log2)” value [2] of the same variant?
Its value is -2.11 ± 0.46.

What does the source list for ACATTAGTTGATACAACCATAAAATGATAATTACACCCATAAATTGATAATTATCACACCCATAAATTGATATTGCCTCTGATCATAGTCAGACCAACATTGCTACGACCCGTATTCGCACCGACAC [TAAATTGATATTGC T6A]?
relative integration efficiency (log2) [1]: -5.81 ± 0.51; relative integration efficiency (log2) [2]: -5.94 ± 1.9

For ACATTGGTTGATACAACCATAAAATGATAATTACACCCATAAATTGATAATTATCACACCCATAAATTGATATTGCCTCTGATCATAGTCAGACCAACATTGCTACGACCCGTATTCGCACCGACAC [TAAATTGATATTGC T6G], which “relative integration efficiency (log2)” value [1] is on record?
Its value is -6.66 ± 0.074.

What about the “relative integration efficiency (log2)” value [2] of the same variant?
The value was -5.28 ± 0.39.

ACACTTGTTGATACAACCATAAAATGATAATTACACCCATAAATTGATAATTATCACACCCATAAATTGATATTGCCTCTGATCATAGTCAGACCAACATTGCTACGACCCGTATTCGCACCGACAC [TAAATTGATATTGC T4C] was tested. Which “relative integration efficiency (log2)” value [1] did it give?
Its value is -0.0535 ± 0.0038.

And the “relative integration efficiency (log2)” value [2]?
The value was -0.0603 ± 0.29.

How did the “relative integration efficiency (log2)” value [1] turn out when ACAGTTGTTGATACAACCATAAAATGATAATTACACCCATAAATTGATAATTATCACACCCATAAATTGATATTGCCTCTGATCATAGTCAGACCAACATTGCTACGACCCGTATTCGCACCGACAC [TAAATTGATATTGC T4G] was run?
Its value is -0.1742 ± 0.00091.

What about the “relative integration efficiency (log2)” value [2] of the same variant?
Its value is 0.405 ± 0.34.

How did the “relative integration efficiency (log2)” value [1] turn out when ACAATTGTTGATACAACCATAAAATGATAATTACACCCATAAATTGATAATTATCACACCCATAAATTGATATTGCCTCTGATCATAGTCAGACCAACATTGCTACGACCCGTATTCGCACCGACAC [TAAATTGATATTGC T4A] was run?
The value was -0.153 ± 0.014.

What about the “relative integration efficiency (log2)” value [2] of the same variant?
The value was -0.113 ± 0.32.

Which results are given for ACATTTGTTGATACAACCATAAAATCATAATTACACCCATAAATTGATAATTATCACACCCATAAATTGATATTGCCTCTGATCATAGTCAGACCAACATTGCTACGACCCGTATTCGCACCGACAC [TAAATTGATATTGC G26C]?
relative integration efficiency (log2) [1]: -1.71 ± 0.29; relative integration efficiency (log2) [2]: -1.36 ± 0.46

ACATTTGTTGATACAACCATAAAATAATAATTACACCCATAAATTGATAATTATCACACCCATAAATTGATATTGCCTCTGATCATAGTCAGACCAACATTGCTACGACCCGTATTCGCACCGACAC [TAAATTGATATTGC G26A] was tested. Which “relative integration efficiency (log2)” value [1] did it give?
The value was -0.553 ± 0.15.

What about the “relative integration efficiency (log2)” value [2] of the same variant?
Its value is -0.268 ± 0.011.

Which “relative integration efficiency (log2)” value [1] does the source give for ACATTTGTTGATACAACCATAAAATTATAATTACACCCATAAATTGATAATTATCACACCCATAAATTGATATTGCCTCTGATCATAGTCAGACCAACATTGCTACGACCCGTATTCGCACCGACAC [TAAATTGATATTGC G26T] here?
The value was -0.472 ± 0.11.

What about the “relative integration efficiency (log2)” value [2] of the same variant?
The value was -0.0416 ± 0.43.

With ACATTTGTTGATACAACCATAAAATGATAATTACACCCATAAATTAATAATTATCACACCCATAAATTGATATTGCCTCTGATCATAGTCAGACCAACATTGCTACGACCCGTATTCGCACCGACAC [TAAATTGATATTGC G46A] as the variant, how does the “relative integration efficiency (log2)” value [1] read?
Its value is -0.369 ± 0.054.

What about the “relative integration efficiency (log2)” value [2] of the same variant?
The value was -0.642 ± 0.19.

Which “relative integration efficiency (log2)” value [1] does the source give for ACATTTGTTGATACAACCATAAAATGATAATTACACCCATAAATTTATAATTATCACACCCATAAATTGATATTGCCTCTGATCATAGTCAGACCAACATTGCTACGACCCGTATTCGCACCGACAC [TAAATTGATATTGC G46T] here?
Its value is -0.423 ± 0.077.

What about the “relative integration efficiency (log2)” value [2] of the same variant?
The value was -0.734 ± 0.14.

What does the source list for ACATTTGTTGATACAACCATAAAATGATAATTACACCCATAAATTCATAATTATCACACCCATAAATTGATATTGCCTCTGATCATAGTCAGACCAACATTGCTACGACCCGTATTCGCACCGACAC [TAAATTGATATTGC G46C]?
relative integration efficiency (log2) [1]: -0.936 ± 0.067; relative integration efficiency (log2) [2]: -0.847 ± 0.31

Which results are given for ACATTTGTTTATACAACCATAAAATGATAATTACACCCATAAATTGATAATTATCACACCCATAAATTGATATTGCCTCTGATCATAGTCAGACCAACATTGCTACGACCCGTATTCGCACCGACAC [TAAATTGATATTGC G10T]?
relative integration efficiency (log2) [1]: -0.7118 ± 0.001; relative integration efficiency (log2) [2]: -1.93 ± 0.22

What does the source list for ACATTTGTTCATACAACCATAAAATGATAATTACACCCATAAATTGATAATTATCACACCCATAAATTGATATTGCCTCTGATCATAGTCAGACCAACATTGCTACGACCCGTATTCGCACCGACAC [TAAATTGATATTGC G10C]?
relative integration efficiency (log2) [1]: -0.405 ± 0.069; relative integration efficiency (log2) [2]: -1.81 ± 0.24
